One substance from PMC7584627 can be followed below.

The experiment concerns the target LuS-N71-SpyTag (Aquifex aeolicus). Description: SDS-PAGE of the covalent conjugate, band intensities.

In turn, SARS-CoV-2 spike-SpyCatcher came in with a percent of nanoparticle subunit conjugated of 91%.
